Data reported in the supplement of paper PMC9732359.
± gives the uncertainty stated by the source.

Experiment: protein stability index of a GFP-peptide fusion (yeast GPS) (PSI 1-4); higher = more stable; sorted into four equal gates, so the index is relative within each strain
In short: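 Plasmids isolated from each sorting gate were PCR-amplified and Illumina-sequenced, and barcodes assigned the reads to strains. The gates, four of equal size, were set by GFP/Cherry fluorescence ratio on mid-log cultures in leucine-free medium. These cultures were yeast carrying a pooled library of tiled 17-residue yeast protein peptides fused downstream of GFP on a plasmid that also expresses Cherry. The protein stability index is the sum of every gate's read frequency times its gate number.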

Row | Sequence | protein stability index (doa10∆) | protein stability index (pdr5∆) | protein stability index (san1∆) | protein stability index (ubr1∆)
1 | FPGKPVDVQAPTDDKTL [YOR098C/NUP1] | 2.78 ± 0.068 | 3.02 ± 0.1 | 2.93 ± 0.089 | 2.75 ± 0.071
2 | NDNYSSDMENDNLLLNL [REC8] | 2.9 ± 0.09 | 2.96 ± 0.12 | 2.82 ± 0.1 | 3.09 ± 0.12
3 | QEGLAKFGACVAQGIMN [RPN2] | 1.79 ± 0.058 | 1.75 ± 0.042 | 1.88 ± 0.14 | 1.58 ± 0.051
4 | LTHPKYLNSRIIPTTLE [YML103C/NUP188] | 2.1 ± 0.035 | 2.26 ± 0.041 | 2.05 ± 0.049 | 2.25 ± 0.036
5 | LIIRCRVVRPKSLDAET [RPO21] | 2.35 ± 0.11 | 2.52 ± 0.09 | 2.22 ± 0.13 | 2.51 ± 0.19
6 | STATRNVTMIDDLIHFT [COR1] | 2.68 ± 0.097 | 2.81 ± 0.092 | 2.82 ± 0.086 | 2.89 ± 0.085
7 | KRPPEIMSTEAHVNKVT [SIR4] | 2.99 ± 0.19 | 2.96 ± 0.086 | 2.92 ± 0.1 | 2.73 ± 0.12
8 | QFSYVDSSMTTVQENEL [AAR2] | 2.62 ± 0.044 | 2.99 ± 0.05 | 2.98 ± 0.04 | 2.95 ± 0.052
9 | NNTNTGASGVDDFQNFF [SWI1] | 2.92 ± 0.068 | 3.16 ± 0.065 | 2.87 ± 0.069 | 3.31 ± 0.045
10 | SALQQIMYQQMLKYRRL [SNF2] | 1.51 ± 0.045 | 1.43 ± 0.036 | 1.44 ± 0.091 | 1.35 ± 0.029
11 | RTDATFIRVIGSELVQK [RPT1] | 3.2 ± 0.082 | 3.19 ± 0.057 | 3.04 ± 0.072 | 2.98 ± 0.051
12 | TVENPLRNWEELNIIPR [PRP28] | 1.49 ± 0.041 | 1.9 ± 0.054 | 1.48 ± 0.086 | 1.77 ± 0.046
13 | IIEQLSIAAERYDYSDE [YCG1] | 2.51 ± 0.052 | 2.78 ± 0.063 | 2.22 ± 0.06 | 2.59 ± 0.032
14 | STKSNKTRNPLTHSTPK [RPL8A] | 2.44 ± 0.29 | 1.95 ± 0.14 |  | 1.88 ± 0.15
15 | LPSGRQDGVLLVALSNE [FAS2] | 2.4 ± 0.087 | 2.52 ± 0.097 | 2.44 ± 0.091 | 1.91 ± 0.13
16 | LSIICVGGHNVTIREQI [SIR3] | 2.22 ± 0.069 | 1.65 ± 0.042 | 1.78 ± 0.092 | 1.81 ± 0.056
17 | ADTKAPTFTFGSSALAD [YLR335W/NUP2] | 3.25 ± 0.069 | 3.01 ± 0.053 | 3.08 ± 0.048 | 3.11 ± 0.033
18 | PERFMVFQLPTRLPAFE [RPC53] | 2.31 ± 0.065 | 2.75 ± 0.054 | 2.54 ± 0.089 | 2.79 ± 0.058
19 | KDSNKDVVVEGLRRARY [RPL10] | 3.26 ± 0.097 | 3.34 ± 0.071 | 3.38 ± 0.072 | 3.38 ± 0.058
20 | VKPISIEAPQFYRYWSA [SWI3] | 2.23 ± 0.036 | 2.09 ± 0.036 | 1.85 ± 0.055 | 2.02 ± 0.032
21 | GQSTILVGSEIYEKLKN [CDC53] | 2.67 ± 0.14 | 3.12 ± 0.15 | 1.36 ± 0.21 | 1.96 ± 0.077
22 | ESGLVNADLDVKDELMF [RPO21] | 3.16 ± 0.059 | 3.27 ± 0.06 | 3.23 ± 0.059 | 3.3 ± 0.038
23 | FHIGYFKATIQILQGIC [RPO31] | 1.39 ± 0.042 | 1.48 ± 0.035 | 1.72 ± 0.062 | 1.54 ± 0.036
24 | ESLQKRELLKSQVEDFT [SIR3] | 3.15 ± 0.045 | 3.22 ± 0.054 | 3.12 ± 0.048 | 3.27 ± 0.043
25 | WSKESNYDCKVISIVGG [PRP28] | 3.06 ± 0.11 | 3.06 ± 0.11 | 2.31 ± 0.097 | 2.74 ± 0.094
26 | IEGMEQRIIKELSIRFP [ARP7] | 3.04 ± 0.096 | 3.21 ± 0.12 | 2.84 ± 0.086 | 2.26 ± 0.099

Row | Sequence | protein stability index (doa10∆) | protein stability index (pdr5∆) | protein stability index (san1∆) | protein stability index (ubr1∆)
27 | TPANNGENAAEKPDNSN [SNF2] | 1.89 ± 0.075 | 2.24 ± 0.098 | 1.81 ± 0.1 | 2.71 ± 0.068
28 | GASVISLTKDKSIRKDT [SIR4] | 3 ± 0.065 | 3.23 ± 0.055 | 3.06 ± 0.076 | 3.13 ± 0.072
29 | EDARRNPNPSSQRAQVV [RPC37] | 3.18 ± 0.073 | 3.26 ± 0.064 | 3.02 ± 0.064 | 3.38 ± 0.054
30 | LKLPLEINYAFSMDEEF [SIR3] | 2.13 ± 0.07 | 2.18 ± 0.058 | 2.73 ± 0.056 | 2.2 ± 0.048
31 | PEQGEEPMKQLNATKIS [YAR002W/NUP60] | 3.15 ± 0.12 | 2.2 ± 0.09 | 2.5 ± 0.14 | 2.48 ± 0.11
32 | RGAWGKPHGLAARVDIG [RPL10] | 2.59 ± 0.064 | 1.99 ± 0.04 | 1.68 ± 0.08 | 2.35 ± 0.037
33 | ELVRLLIIDEIHLLHDD [BRR2] | 2.17 ± 0.11 | 1.63 ± 0.075 | 1.5 ± 0.1 | 1.97 ± 0.063
34 | KVLARQQLQVLARYLKM [FAS2] | 1.41 ± 0.081 | 1.47 ± 0.083 | 1.75 ± 0.15 | 2.1 ± 0.12
35 | ELNDLKWGRNQPVNINL [YMR129W/POM152] | 2.8 ± 0.1 | 2.72 ± 0.086 | 2.83 ± 0.11 | 2.56 ± 0.068
36 | IRYNAKRRNWRRTKMNI [RPL39] | 3.23 ± 0.095 | 3.23 ± 0.093 | 3.07 ± 0.095 | 3.32 ± 0.057
37 | YLEENKSDSQYRFYEYI [MED1] | 3.04 ± 0.063 | 3.06 ± 0.062 | 3.12 ± 0.069 | 3.13 ± 0.086
38 | ALLRSGRLDRKIEFPLP [RPT5] |  |  |  | 3.43 ± 0.18
39 | TVKENESDSKLQCHISG [UBP6] | 3.28 ± 0.098 | 3.3 ± 0.11 | 3.05 ± 0.087 | 3.15 ± 0.1
40 | SMATPTHSDSHEDMKRR [ROX3] | 2.77 ± 0.11 | 2.94 ± 0.11 | 2.53 ± 0.091 | 2.73 ± 0.04
41 | LADWRIRPLSKPMTAYA [RRP6] | 2.82 ± 0.13 | 3.15 ± 0.13 | 2.7 ± 0.19 | 2.98 ± 0.088
42 | AVTHNLYYDEDINVESL [PUP2] | 3.16 ± 0.11 | 3.25 ± 0.088 | 3.05 ± 0.18 | 2.89 ± 0.06
43 | LHPYNSRGLFEKKLMQD [YDL116W/NUP84] | 2.89 ± 0.18 | 3.28 ± 0.16 | 2.86 ± 0.1 | 2.91 ± 0.13
44 | GSSGGVIRMVVLTAAGV [PRE3] | 2.33 ± 0.086 | 1.74 ± 0.075 | 2.64 ± 0.12 | 1.74 ± 0.049
45 | VAEKMNGCSGADVKGVC [RPT6] | 3.41 ± 0.24 |  | 3.19 ± 0.23 | 3.07 ± 0.11
46 | CFICLLHLANEHGLQIT [BRN1] | 2.54 ± 0.12 | 2.81 ± 0.17 | 2.61 ± 0.17 | 2.87 ± 0.087
47 | AKRDYIISRLNADFQKP [FAS1] | 3.32 ± 0.13 | 3.07 ± 0.085 | 2.94 ± 0.091 | 3.22 ± 0.077
48 | NLAPKLRNVFLGKCSRI [GRR1] | 2.7 ± 0.048 | 2.43 ± 0.049 | 2.58 ± 0.041 | 2.29 ± 0.049
49 | QTRWGLPSGRQDGVLLV [FAS2] | 1.65 ± 0.12 |  | 1.59 ± 0.24 | 1.32 ± 0.15
50 | RENALYDYYALQLLPLQ [SNF2] | 2.63 ± 0.078 | 2.74 ± 0.045 | 2.72 ± 0.056 | 2.77 ± 0.042
51 | PGEYITTIKAIFDGNYG [YMR129W/POM152] | 2.62 ± 0.066 | 2.72 ± 0.071 | 2.77 ± 0.069 | 2.95 ± 0.07
52 | NLLPKKSAKATKASQEL [HTA1] | 2.93 ± 0.1 | 3.09 ± 0.12 | 3.17 ± 0.069 | 3.03 ± 0.088
